Laboratory results as given in patent US20190194664.

Test system: eGFP-Polη

Rad18 mutant lacking the residues phosphorylated by the Cdc7 kinase (Rad18Δ401-445)
suppression of UV-dependent Chk1 phosphorylation: this mutant did not either suppress Chk1 phosphorylation
